Test results as given in IntAct's records for PubMed 29892012.

B1: Zinc finger protein 786 (Homo sapiens), Q8N393 (parent)
chain: MAEPPRLPLTFEDVAIYFSEQEWQDLEAWQKELYKHVMRSNYETLVSLDDGLPKPELISWIEHGGEPFRKWRESQKSGNIICSSVDMHFDPGFEEQLFWGSQQAMNSGKTKSHFQLDPESQCSFGSFVSFRPDQGITLGSPQRHDARAPPPLACGPSESTLKEGIPGPRNLDLPGLWDVPAWESTQHPWPVCGESCWENNHLVMHQRGHSKDRTRRAWEKFNKRAETQMPWSSPRVQRHFRCGVCGKSFRRKLCLLRHLAAHTGRGPFRNADGEMCFRHELTHPSHRLPQQGEKPAQCTPCGKRSLPVDSTQARRCQHSREGPASWREGRGASSSVHSGQKPGSRLPQEGNSHQEGDTEALQHGAEGPCSCSECGERSPMSARLASPCRAHTGEKPFQCAHCTKRFRLRRLLQVHQHAHGGERPFSCRKCGKGFAKQCKLTEHIRVHSGEKPFRCAKCGRNFRQRGQLLRHQRLHTDEKPFQCPECGLSFRLESMLRAHRLRHGGERPFSCSECGRGFTHQCKLREHLRVHSGERPFQCLKCDKRFRLKGILKAHQHTHSKERPFSCGECGKGFTRQSKLTEHLRVHSGERPFQCPECNRSFRLKGQLLSHQRLHTGERPFQCPECDKRYRVKADMKAHQLLHSGEMPFSCECGKGFVKHSKLIEHIRTHTGEKPFQCPKCDKSFRLKAQLLSHQGLHTGERPFHCPECDKNFRERGHMLRHQRIHRPERPFACGDCGKGFIYKSKLAEHIRVHTKSCPAPNELDIKKRLSQLFAMIEADWS
B2: Chorion-specific transcription factor GCMb (Homo sapiens), O75603 (parent)
chain: MPAAAVQEAVGVCSYGMQLSWDINDPQMPQELALFDQFREWPDGYVRFIYSSDEKKAQRHLSGWAMRNTNNHNGHILKKSCLGVVVCTQACTLPDGSRLQLRPAICDKARLKQQKKACPNCHSALELIPCRGHSGYPVTNFWRLDGNAIFFQAKGVHDHPRPESKSETEARRSAIKRQMASFYQPQKKRIRESEAEENQDSSGHFSNIPPLENPEDFDIVTETSFPIPGQPCPSFPKSDVYKATCDLATFQGDKMPPFQKYSSPRIYLPRPPCSYELANPGYTNSSPYPTLYKDSTSIPNDTDWVHLNTLQCNVNSYSSYERSFDFTNKQHGWKPALGKPSLVERTNHGQFQAMATRPYYNPELPCRYLTTPPPGAPALQTVITTTTKVSYQAYQPPAMKYSDSVREVKSLSSCNYAPEDTGMSVYPEPWGPPVTVTRAASPSGPPPMKIAGDCRAIRPTVAIPHEPVSSRTDEAETWDVCLSGLGSAVSYSDRVGPFFTYNNEDF
partner: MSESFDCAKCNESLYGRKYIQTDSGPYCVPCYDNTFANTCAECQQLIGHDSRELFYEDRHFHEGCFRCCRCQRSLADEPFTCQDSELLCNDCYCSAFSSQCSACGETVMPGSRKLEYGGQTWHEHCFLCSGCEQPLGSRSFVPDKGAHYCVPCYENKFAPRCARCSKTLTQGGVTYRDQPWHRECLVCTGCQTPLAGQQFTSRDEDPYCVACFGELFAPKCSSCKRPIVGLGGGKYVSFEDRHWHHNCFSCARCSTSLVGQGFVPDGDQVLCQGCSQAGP
B3: Glutaredoxin-3 (Homo sapiens), O76003 (parent)
chain: MAAGAAEAAVAAVEEVGSAGQFEELLRLKAKSLLVVHFWAPWAPQCAQMNEVMAELAKELPQVSFVKLEAEGVPEVSEKYEISSVPTFLFFKNSQKIDRLDGAHAPELTKKVQRHASSGSFLPSANEHLKEDLNLRLKKLTHAAPCMLFMKGTPQEPRCGFSKQMVEILHKHNIQFSSFDIFSDEEVRQGLKAYSSWPTYPQLYVSGELIGGLDIIKELEASEELDTICPKAPKLEERLKVLTNKASVMLFMKGNKQEAKCGFSKQILEILNSTGVEYETFDILEDEEVRQGLKAYSNWPTYPQLYVKGELVGGLDIVKELKENGELLPILRGEN
partner: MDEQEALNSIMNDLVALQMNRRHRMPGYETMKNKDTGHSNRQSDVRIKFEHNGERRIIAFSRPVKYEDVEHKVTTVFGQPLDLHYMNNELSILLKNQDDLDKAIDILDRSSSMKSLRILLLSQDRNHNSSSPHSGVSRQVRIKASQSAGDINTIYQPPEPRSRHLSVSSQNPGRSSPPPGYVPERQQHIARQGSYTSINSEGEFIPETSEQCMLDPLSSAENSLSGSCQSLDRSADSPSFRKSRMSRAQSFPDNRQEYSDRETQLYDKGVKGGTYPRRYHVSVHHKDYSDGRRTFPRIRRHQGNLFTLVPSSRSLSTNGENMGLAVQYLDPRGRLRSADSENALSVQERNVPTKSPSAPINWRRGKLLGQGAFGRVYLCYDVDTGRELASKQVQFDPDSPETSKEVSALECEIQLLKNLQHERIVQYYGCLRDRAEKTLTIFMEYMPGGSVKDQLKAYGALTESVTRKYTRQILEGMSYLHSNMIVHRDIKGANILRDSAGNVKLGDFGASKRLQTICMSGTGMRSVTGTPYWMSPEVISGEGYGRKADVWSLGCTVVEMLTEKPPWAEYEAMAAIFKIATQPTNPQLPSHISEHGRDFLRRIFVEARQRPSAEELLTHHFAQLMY
B4: Coiled-coil alpha-helical rod protein 1 (Homo sapiens), Q8TD31 (parent)
chain: MFPPSGSTGLIPPSHFQARPLSTLPRMAPTWLSDIPLVQPPGHQDVSERRLDTQRPQVTMWERDVSSDRQEPGRRGRSWGLEGSQALSQQAEVIVRQLQELRRLEEEVRLLRETSLQQKMRLEAQAMELEALARAEKAGRAEAEGLRAALAGAEVVRKNLEEGSQRELEEVQRLHQEQLSSLTQAHEEALSSLTSKAEGLEKSLSSLETRRAGEAKELAEAQREAELLRKQLSKTQEDLEAQVTLVENLRKYVGEQVPSEVHSQTWELERQKLLETMQHLQEDRDSLHATAELLQVRVQSLTHILALQEEELTRKVQPSDSLEPEFTRKCQSLLNRWREKVFALMVQLKAQELEHSDSVKQLKGQVASLQEKVTSQSQEQAILQRSLQDKAAEVEVERMGAKGLQLELSRAQEARRRWQQQTASAEEQLRLVVNAVSSSQIWLETTMAKVEGAAAQLPSLNNRLSYAVRKVHTIRGLIARKLALAQLRQESCPLPPPVTDVSLELQQLREERNRLDAELQLSARLIQQEVGRAREQGEAERQQLSKVAQQLEQELQQTQESLASLGLQLEVARQGQQESTEEAASLRQELTQQQELYGQALQEKVAEVETRLREQLSDTERRLNEARREHAKAVVSLRQIQRRAAQEKERSQELRRLQEEARKEEGQRLARRLQELERDKNLMLATLQQEGLLSRYKQQRLLTVLPSLLDKKKSVVSSPRPPECSASAPVAAAVPTRESIKGSLSVLLDDLQDLSEAISKEEAVCQGDNLDRCSSSNPQMSS
partner: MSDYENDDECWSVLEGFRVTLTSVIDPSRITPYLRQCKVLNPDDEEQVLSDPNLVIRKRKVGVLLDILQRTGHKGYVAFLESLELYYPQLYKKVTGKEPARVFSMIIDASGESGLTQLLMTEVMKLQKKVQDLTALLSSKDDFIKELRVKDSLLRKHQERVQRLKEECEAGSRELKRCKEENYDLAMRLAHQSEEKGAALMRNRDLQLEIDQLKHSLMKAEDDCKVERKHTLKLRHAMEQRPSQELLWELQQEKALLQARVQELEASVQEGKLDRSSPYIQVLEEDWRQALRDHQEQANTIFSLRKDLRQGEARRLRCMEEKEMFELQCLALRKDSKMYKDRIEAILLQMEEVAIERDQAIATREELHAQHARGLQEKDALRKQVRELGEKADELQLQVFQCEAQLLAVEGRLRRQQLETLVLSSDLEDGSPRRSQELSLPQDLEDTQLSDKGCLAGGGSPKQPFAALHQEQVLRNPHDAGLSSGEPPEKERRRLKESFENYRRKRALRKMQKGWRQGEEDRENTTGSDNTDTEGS

Variants of: B1
Details: with kr103_human KRTAP10-3, P60369
Sequence of kr103_human KRTAP10-3, P60369 (P60369 whole entry): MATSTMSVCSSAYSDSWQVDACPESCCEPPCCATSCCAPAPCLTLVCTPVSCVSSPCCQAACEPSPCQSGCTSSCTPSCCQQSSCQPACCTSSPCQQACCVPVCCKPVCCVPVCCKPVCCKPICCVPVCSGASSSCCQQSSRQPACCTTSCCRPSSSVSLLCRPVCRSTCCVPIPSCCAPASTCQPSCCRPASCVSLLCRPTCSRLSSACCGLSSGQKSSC

Variant	effect of a mutation on the interaction
S112R	with no effect

Variants of: B1
Details: with kr103_human KRTAP10-3, P60369
Remark: another data set of the same source

Variant	effect of a mutation on the interaction
V37A	with no effect

Variants of: B2
Details: with fhl3_human FHL3, Q13643

Variant	effect of a mutation on the interaction
G349E	with no effect

Variants of: B3
Details: with m3k3_human MAP3K3, Q99759

Variant	effect of a mutation on the interaction
P145A	with no effect

Variants of: B4
Details: with card9_human CARD9, Q9H257

Variant	effect of a mutation on the interaction
W337R	disrupting interaction strength
